Experimental data taken from PMC5290284, “Portal protein functions akin to a DNA-sensor that couples genome-packaging to icosahedral capsid maturation” (Nature Communications, 2017).

T1: P22 PC-portal rings coupled to CNBr-activated Sepharose beads (bacteriophage P22, UniProt P26744 1-725)
T1 construct: Portal protein (gp1) of bacteriophage P22; Procapsid conformation; also called PC-portal protein; PC-portal beads; source: E. coli BL21 (DE3), purified (Ni-NTA, Superose 6); copies: 12
T1 sequence (looked up): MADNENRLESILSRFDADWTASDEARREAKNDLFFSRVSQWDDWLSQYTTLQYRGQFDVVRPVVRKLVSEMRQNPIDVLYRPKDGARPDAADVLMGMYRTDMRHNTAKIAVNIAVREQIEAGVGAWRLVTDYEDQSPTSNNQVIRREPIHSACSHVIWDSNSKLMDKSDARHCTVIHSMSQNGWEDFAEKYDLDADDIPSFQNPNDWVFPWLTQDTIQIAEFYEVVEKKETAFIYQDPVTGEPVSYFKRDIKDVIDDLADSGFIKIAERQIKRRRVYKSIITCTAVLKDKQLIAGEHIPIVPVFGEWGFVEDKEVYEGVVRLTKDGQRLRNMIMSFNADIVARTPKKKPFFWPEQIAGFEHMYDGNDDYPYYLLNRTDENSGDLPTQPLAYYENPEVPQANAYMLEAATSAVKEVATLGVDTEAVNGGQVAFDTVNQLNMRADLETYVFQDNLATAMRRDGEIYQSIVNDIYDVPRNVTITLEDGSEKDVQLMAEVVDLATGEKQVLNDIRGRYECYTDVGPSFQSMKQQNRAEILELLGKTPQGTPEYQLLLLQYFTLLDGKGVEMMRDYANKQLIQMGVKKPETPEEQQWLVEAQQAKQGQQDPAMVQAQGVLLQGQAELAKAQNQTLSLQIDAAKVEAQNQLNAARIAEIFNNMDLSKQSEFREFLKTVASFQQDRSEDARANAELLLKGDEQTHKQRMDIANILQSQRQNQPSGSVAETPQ

T2: P22 MV-portal rings coupled to CNBr-activated Sepharose beads (bacteriophage P22, UniProt P26744 1-725)
T2 construct: Portal protein (gp1) of bacteriophage P22; Mature virion conformation; also called MV-portal protein; MV-portal beads; source: E. coli BL21 (DE3), purified (Ni-agarose, Superose 12); copies: 12
T2 sequence (looked up): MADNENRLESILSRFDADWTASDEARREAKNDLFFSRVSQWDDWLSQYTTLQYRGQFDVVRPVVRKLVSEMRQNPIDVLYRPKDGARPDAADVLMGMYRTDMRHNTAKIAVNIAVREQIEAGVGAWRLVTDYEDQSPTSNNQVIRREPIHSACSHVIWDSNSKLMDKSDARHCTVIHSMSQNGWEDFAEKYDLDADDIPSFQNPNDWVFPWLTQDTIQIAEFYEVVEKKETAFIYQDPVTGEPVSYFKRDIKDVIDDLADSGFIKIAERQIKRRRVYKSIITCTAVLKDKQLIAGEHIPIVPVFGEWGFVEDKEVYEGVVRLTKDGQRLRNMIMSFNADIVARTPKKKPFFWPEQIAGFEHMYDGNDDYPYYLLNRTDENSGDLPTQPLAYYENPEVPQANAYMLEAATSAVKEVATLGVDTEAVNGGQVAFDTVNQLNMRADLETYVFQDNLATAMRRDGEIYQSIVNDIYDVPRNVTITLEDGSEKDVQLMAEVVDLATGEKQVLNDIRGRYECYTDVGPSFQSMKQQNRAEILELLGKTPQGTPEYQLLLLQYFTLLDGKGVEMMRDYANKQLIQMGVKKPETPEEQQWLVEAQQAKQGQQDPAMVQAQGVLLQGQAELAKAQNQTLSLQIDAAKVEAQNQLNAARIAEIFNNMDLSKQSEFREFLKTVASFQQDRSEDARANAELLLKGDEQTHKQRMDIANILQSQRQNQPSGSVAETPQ


Experiments:
[1] = target: T1, P22 PC-portal rings coupled to …; experiment: pull-down; PC- or MV-portal rings immobilized on CNBr-activated Sepharose 4B beads; soluble protein added (L-terminase pre-complexed with non-hydrolyzable ATP); bound and unbound fractions on SDS–PAGE; settings: both partners purified
[2] = target: T2, P22 MV-portal rings coupled to …; experiment: as above; settings: both partners purified
[3] = target: the molecule itself; experiment: crystal structure; PC-portal core at 10 mg/ml, 5% PEG 8,000, 10 mM caesium chloride, pH 5.6, 22 °C; 3.30 Å; whole dodecamer in the asymmetric unit

Binder	stoichiometry N [1]	stoichiometry N [2]	stoichiometry N [3]
P22 tail factor gp4 (natural protein, bacteriophage P22, UniProt P26746 1-166, looked up, Tail factor gp4 of bacteriophage P22; source: E. coli BL21 (DE3), purified (Ni-agarose, Superdex 75)) MQIKTKGDLVRAALRKLGVASDATLTDVEPQSMQDAVDDLEAMMAEWYQDGKGIITGYVFSDDENPPAEGDDHGLRSSAVSAVFHNLACRIAPDYALEATAKIIATAKYGKELLYKQTAISRAKRAPYPSRMPTGSGNSFANLNEWHYFPGEQNADSTTPHDEGNG	11.4 ± 1 gp4 equivalents	11 ± 1 gp4 equivalents	
P22 PC-portal protein core (res. 1–602), procapsid conformation (domain or fragment, bacteriophage P22, UniProt P26744 1-602, looked up, Portal protein (gp1) of bacteriophage P22, core, residues 1–602; Asymmetric dodecamer; also called PC-portal core; portal-602; copies: 12) MADNENRLESILSRFDADWTASDEARREAKNDLFFSRVSQWDDWLSQYTTLQYRGQFDVVRPVVRKLVSEMRQNPIDVLYRPKDGARPDAADVLMGMYRTDMRHNTAKIAVNIAVREQIEAGVGAWRLVTDYEDQSPTSNNQVIRREPIHSACSHVIWDSNSKLMDKSDARHCTVIHSMSQNGWEDFAEKYDLDADDIPSFQNPNDWVFPWLTQDTIQIAEFYEVVEKKETAFIYQDPVTGEPVSYFKRDIKDVIDDLADSGFIKIAERQIKRRRVYKSIITCTAVLKDKQLIAGEHIPIVPVFGEWGFVEDKEVYEGVVRLTKDGQRLRNMIMSFNADIVARTPKKKPFFWPEQIAGFEHMYDGNDDYPYYLLNRTDENSGDLPTQPLAYYENPEVPQANAYMLEAATSAVKEVATLGVDTEAVNGGQVAFDTVNQLNMRADLETYVFQDNLATAMRRDGEIYQSIVNDIYDVPRNVTITLEDGSEKDVQLMAEVVDLATGEKQVLNDIRGRYECYTDVGPSFQSMKQQNRAEILELLGKTPQGTPEYQLLLLQYFTLLDGKGVEMMRDYANKQLIQMGVKKPETPEEQQWLVEAQQAKQG			12 protomers
